We go through 20 sequences from the DeepSol protein solubility set.

This data set can be described thus: soluble on expression in E. coli; label from the status in PepcDB or PDB records.
With “MSLPVFSFEEPTGPHRVGTKLYHWVDHQRNEPYSKNPNDRRELMVQIWYPAAEKSKGDPEPYIRNINELSKGLEKTLSIPAFAFSHMELVKSHSFMDLQLSDSENHYPILLFSHGFNGFRNQNTFQVEELASQGYIVLSIDHTFDAAATVFPGGRTAYVQPINLTDEGDSHIKLWEEDVSFVLNQIEKLNENDETGFFTGRLDTSRIGMFGHSYGGATAAQILAKDSRVKAAINMDGTLYGEILPESGIGKPFLLMNAEEPDEADPFEVRERYGRGLAGGGMSMVIPHTDHTSFTDLHLFSPLLQSPGENPKEVHRIINEFSLAFFDQYVKQKDDGSTLKRLITQYPEVNFKINREGHHHHHH”, the “soluble on expression in E. coli” value is “soluble”.

“MSLKFIGECRDRWPIAVLCRTLEVTRAAYYRFAGRGPTVTEIKQTQIIQAVKEIRLEKHHDAYGSPRMQRAIVKRGVVCCRNTVAKCMRHAGIQANRRTKFRISTTDSNHDQPIASNLLGQNFTTEAINRVWLTDITYIPTQEGSTYLCAFVDLHSRKIVSWKTSRNMDSELVVGAFDQALTFRKPNAGLIVHSDRGSQFASDHFRRRLAASGLVQSMSRRGNCYDNAPMESFFKSYKTEEAQQIYDTHEHATRGVSDYIERFYNPHRLHSSLGYLSPIDFEQAIKEPSLVSESEGHHHHHH”: the “soluble on expression in E. coli” value is “not soluble”.

On to “MGSDKIHHHHHHMSVVDPSLIERIIRDDVRAMGAYHVPDSHGLVKLDAMENPYRLPPALRSELAARLGEVALNRYPVPSSEALRAKLKEVMQVPAGMEVLLGNGSDEIISMLALAAARPGAKVMAPVPGFVMYAMSAQFAGLEFVGVPLRADFTLDRGAMLAAMAEHQPAIVYLAYPNNPTGNLFDAADMEAIVRAAQGSVCRSLVVVDEAYQPFAQESWMSRLTDFGNLLVMRTVSKLGLAGIRLGYVAGDPQWLEQLDKVRPPYNVNVLTEATALFALEHVAVLDEQAAQLRAERSRVAEGMAAHGGVTVFPSAANFLLARVPDAAQTFDRLLARKVLIKNVSKMHPLLANCLRVTVSTPEENAQFLEAFAASLQD”, for which the “soluble on expression in E. coli” value is given as “not soluble”.

“LFNYKPGTSVFSIATAGCNFKCKHCQNWEISQSLPEEVPFSELTPEDVVELAKNYLCEGIAYTYTEPTIFYEFMQETAKLAKKHDLFNVMVTNGYIEKEPLKKLEIDAMNIDIKGNSEFYKKICLAELEPVLETCRLAKKLGIHIEITNLVVPTYNDNPKYIESIINFVKDELGVDTPLHFTAFYPHYKLTSVPSTRMETIKKARDMALNAGLHYVYAGNV”: the “soluble on expression in E. coli” value is listed as “not soluble”.

Consider “MGSDKIHHHHHHMKKYMRTCSPRLAKEKYCTGCMACSDACTHDAIKIVEKNCMPFVKVDTHKCMNCHLCEKACPIITPVKKNRAEEMNVYGGWANDEQTRIDAASGGGFSGLAQSFFHLHKEDKVAVIGATLANNRVYHQLIEQEKDIVLLTNSKYIQSDTQGIYKEVIERLKTGYWILFSGCPCQIAGLYGFLGKKRDSERLITIEVVCHGIASYEALDLHLKYYNSSRIYRFRDKRHGTQDWKQSQCTTIEQNGEEIKLKRKDDMFYAIYAGWMLDRKSCSNCQFAEINRVADITIADFWGLQVPDYYKQGVSLIIANNNKADTMIKAADAIYTFKESLRTAINGNPHLFTGYKLIQFHPIVMWPDFFRKILPKRIRFKILTNRMPYKLFWALYKLGTIYLVKYQKKQLISKFQKDDNLLKLLNNANRGGGKMA”, for which the “soluble on expression in E. coli” value is listed as “not soluble”.

With “MFSDYHVHSSFSFDSEESPRAIVEKAIALGMKQICFTDHQDFNWPIKGESPYIDFPKYFEVLNSLRNEYSSKINILKGVELGLTSDNFSLCHKFLDSYDFDFVIGSCHIVDQMDPYYAEFWKGKNDRDCFELYFKTLLDSLKFFIGRNTCTTPRTVNTLGHLDYIVRYSPNKDNNYSVADYIDVIDEILKMIIENDIKLEINTSNFSKGFDFPNPHTDIIRRYKELGGLYVTVGSDAHKAQFIGSGFDLVEKIVEKYKLKVFTI”, the “soluble on expression in E. coli” value is recorded as “not soluble”.

Regarding “MGEIQTLNEQHSVGKPVIRLSGISKSFDGKEIIGNLNLDVNHGEFLTILGPSGCGKTTVLRMIAGFETADQGQILLDDQDVTQVPAEQRHVNTVFQSYALFPHMTVFENVAFGLRMQKVPQSEIEPRVMEALRMVRLAEMAQRKPHQLSGGQQQRIAIARAVVNKPKVLLLDESLSALDYKLRKQMQSELKQLQRQLGITFIFVTHDQEEALSMSDRIIVMRSGKIEQDGSPREIYEDPKNLFVARFIGEINVFQATTIDRIDEKRIRVDIEGIESIVYYEDEVKAGDKLQVLLRPEDLRIEEIKESEEKGIVGHVTDRTYKGMTLESVVELESGMCVMVSEFFNEDDPDVDHSIGQKVAVTWVESWEVVLNDEQKA”, the “soluble on expression in E. coli” value was “not soluble”.

For “MYVTVTEAAYKKIMDTIPSEAKYIKLFYDNEGCGCVMSGIIDLVAVAEKDERDVDIESSTMNFIADRTKLVFMDDKLTVDWHEGGGTFQLKSPSQFYNPNMKLHVRV”, the “soluble on expression in E. coli” value is listed as “not soluble”.

For the sequence “SNAMSKITFKDIYIDGNKITEDSRKAIYLLPPQPLKYASNTWIYKTMPTMNQWLKDIEVQKKMHLNQSSYHLSFSFPANEKIDEVLLEKIRELGFQIGVLELYVIEAKALKELSRKRDVDIQLVSSNNINDYLHVYDAFARPFGDSYANMVKQHIYSSYNLDDIERLVAYVNHQPVGIVDIIMTDKTIEIDGFGVLEEFQHQGIGSEIQAYVGRMANERPVILVADGKDTAKDMYLRQGYVYQGFKYHILKENI”, the “soluble on expression in E. coli” value was “soluble”.

Take “MSLNDYSRQNFLDLNLFRGLGEDPAYHPPVLTDRPRDWPLDRWAEAPRDLGYSDFSPYQWRGLRMLKDPDTQAVYHDMLWELRPRTIVELGVYNGGSLAWFRDLTKIMGIDCQVIGIDRDLSRCQIPASDMENITLHQGDCSDLTTFEHLREMAHPLIFIDDAHANTFNIMKWAVDHLLEEGDYFIIEDMIPYWYRYAPQLLSEYLGAFRDVLSMDMLYANASSQLDRGVLRRVAAKQEGHHHHHH”: the “soluble on expression in E. coli” value is “soluble”.

As for “MGSDKIHHHHHHMAAKPPLTLYLAAPRGFCAGVDRAIKIVEMALEKWGAPVYVRHEIVHNKFVVDGLRDKGAVFVEELEECPDDRPVIFSAHGVPKSVPAAAEARQMVYVDATCPLVSKVHIEAQRHAEAGLQMIMIGHKGHPETVGTMGQLPEGEVLLVETVEDVAQVEVRDPERLAFVTQTTLSVDDTKDIVAALQARFPAIVGPHKEDICYATTNRQEAVKEVAPKADALLVVGAPNSSNSRRLVEVGAKNGCSYAQLVQRAENIDWRALEGIQSIAITAGASAPELLVNEVIDAFRDRYEVTVELVETAVERVEFKVPRVLRTA”, the “soluble on expression in E. coli” value was “not soluble”.

In the case of “TPDTLELSLDKPAYRPGETAQLRIVPRAPGKALVTVLSNRVIAMKAVEVGEGETLVDLPVTDEWGTGVYVTATLLRPMDVAAGRNPTRALGLAHAAIDPGEKRLGATIETAAEAAPRGPMEIAVKVEGTAPGETVHATIAAVDVGILNLTGF”, the “soluble on expression in E. coli” value is recorded as “not soluble”.

Take “MLNTSDIGKVFPSVTAVVEKGRLRFFAKAIGENNPIYTDEAAAKDAGYESLPMPPTFFFSLKMDVPNPFENYEKVGASLAKILHANQAFVYHQSVVAGDSLTFESHIADIYDKKAGALEFLVEKTKVSNQRGQHVADMTTTLVVRNLEHHHHHH”: the “soluble on expression in E. coli” value is on record as “not soluble”.

For “MGSDKIHHHHHHMALQWVKRTIKAGAALAGCVLVVTALDPARGSVDAKERVKGIVAAAAMSPAGIPFELAAQEIATIGTRPMAERLSISGELQPVNRVLIRAREAGKILEMNVREGQAVRAGDMLVRFETDELQSTLLLRQSDRDAAEAELMLAMQALARTEQLAAKNIASTEQLDKAKSDVVVKTTRVQSLSSQVDIARLALRNAEIRAPFDGTVTRRVAETGARIGADGELLTLVDTSELEAKVLVATRDIPRVARGQTAELEIDGLAGQIVKGTVERISPVAEDGTRVVAVYLRLANRDGQLWGGMFAGGSILLREKNDALVVPAIALRKDETGYHVLKIQDGHLRRQTVAVGPRWNGGSLIEIGAGLADGETILTVPLPELRPDMAVTIDKAG”, the “soluble on expression in E. coli” value is listed as “not soluble”.

As to “MSTATKVGAVIITMGNRPDELRALLDSVAKQDGDRVEVVVVGNGSPVPDVPAGVRTVELPENLGIPGGRNVGIEAFGPGGTDVDILLFLDDDGLLAHHDTAELCRQAFTADPELGIISFRIADPDTGETQRRHVPRLRASDPMRSSRVTTFLGGANAVRTKVLAEVGGLPDEFFYAHEETDLAWRALDAGWMIDYRSDMVLYHPTTAPSRHAVYHRMVARNRVWLARRNLPAPLVPVYLGVWLLLTLARRPSGPALKAWFGGFKEGWTSPCGPRRPMKWRTVWRLTRLGRPPVILEHHHHHH”, the “soluble on expression in E. coli” value is on record as “not soluble”.

With “MGSDKIHHHHHHMGTAKGNITNWTQYNQVLTQRGSLTFWMDDAAIKHWYNQHPSGRQGRSNTYSDSAISTALMIKGVFKLPLRALYGFINSLFRLMDVDLKSPDYSCISKRAKTVEVNYRLRSKGPARHILIDATGLKVFGEGEWKIRKHGKEKRRIWRKMHLAVDADTREIVSAVASLDNVHNSEVIPTLINPLRCKIKQVSADGAYDTKHCYAVLQRKGITAIIPSRKNAGYRRGEQPRNEAVDALKERSVSLVEA”, the “soluble on expression in E. coli” value was “not soluble”.

For “MNIDLTPYYAEPGEQPFSARRMAMPWRNHVPLSPEQIPAGWQTLKQQSVPARKRLLYLHIPFCATHCTFCGFYQNKLRDDSTATYTRYLLQELAMEADSPLHQSAPIHAVYFGGGTPTALAADELSQIIRAIRTSLPLAPDCEITVEGRAMDFDDERIDACLDAGANRFSIGIQTFDTRIRQRMARTSDKQQSIRFLERLCGRDRAAVVCDLMFGLPGQTPEIWREDLAIVSDLPLDGVDLYALNLLPTTPLAKAAENQRVALPDVVARRDFYRTGAAFLADSGWHQLSNSHWARTTRERNLYNLLIKQGADCLAMGSGAGGNINGQAYMMERSLERYYQQIDQGQKPIMMMTPASSTGPWQHQLQAGIEVGRIKLPQLTQHARELQPLLSQWHQAGLTCDDSTCLRLTNDGRFWANNLMQALQQIIPQLNAEEHAHLEHHHHHH”, the “soluble on expression in E. coli” value is given as “soluble”.

As to “ARFMAVSSELKDDTRTYTVAGQVFFASSDRFMSHFDFREAVERVVIDVTHAHFWDITSVSALDRVVIKFRREGTEVEIKGMNDATRTLVDRFGVHDKPEEVEKLMGGH”, the “soluble on expression in E. coli” value is recorded as “not soluble”.

In the case of “MGSDKIHHHHHHMAESKIAERAFYQPGASSIEGMPTTLQLFHNHPPIMLRPHWHAQVEVNYVMSGSVHYRMGDHDLTLNAGQMCIFWGGQPHQMDRSSDDSFYAGAHLPLVHFFRMRLPAAISSQLMDGATMVSGETDRADAENFGRWFRYVTSGDPAKAQHAVEELLLRVERMFLEPYSVISSADHGKRKEDDEGMAPSIGVVRMCDFIAANFLDDIDAADIARAASLHPKYAMNLFRKSTGMTLIKYLTLLRLSRAQAMLMTGKDNILQIAMESGFGSVSAFNKAFRQISGMSPSDFRRDMRAAAA”, the “soluble on expression in E. coli” value is given as “not soluble”.

As to “MSLTMPAESAATVRGRRYPADPEWFCDFRTFPVQGLGPEVGVHRRDPSSVLTVDGRYHVWYTRSTGETDGFGTGDPMAKVFPWDWSEIWHATSDDGATWVEQGRALGRGEPGSYDDRSVFTPEVLEHQGWFYLVYQVIRSPYALRSFESIAMAKAPSPDGPWVRSPQPILRPQADGEWAGEEDNRLSVVSQGSFDSHKVHDPILVPFQGRFFLYYKGEQMGEGFSAGGRTTRWGLAIADDIEGPYHRCPANPVTNSGHETCVWRYGDGIAAMLTTDGPERNTIQFAPDGINFEIMAHIANPPVATGPLRLPDHAVAPLDGVRWGLCHDVTASWHYIQGFAADERQKMFYTRGLSPETAESAEADALPAPHEKEGHHHHHH”, the “soluble on expression in E. coli” value was “soluble”.
